Source: patent publication US20170224783

Target: pyruvate dehydrogenase complex (PDHC) immuno-captured from tissue lysates of E3 mice

B1: TAT-LAD fusion protein (His tag, TAT peptide, human LAD precursor) (protein)
chain: MGSSHHHHHHSSGLVPRGSHMRKKRRQRRRGSDPQSWSRVYCSLAKRGHFNRISHGLQGLSAVPLRTYADQPIDADVTVIGSGPGGYVAAIKAAQLGFKTVCIEKNETLGGTCLNVGCIPSKALLNNSHYYHMAHGTDFASRGIEMSEVRLNLDKMMEQKSTAVKALTGGIAHLFKQNKVVHVNGYGKITGKNQVTATKADGGTQVIDTKNILIATGSEVTPFPGITIDEDTIVSSTGALSLKKVPEKMVVIGAGVIGVELGSVWQRLGADVTAVEFLGHVGGVGIDMEISKNFQRILQKQGFKFKLNTKVTGATKKSDGKIDVSIEAASGGKAEVITCDVLLVCIGRRPFTKNLGLEELGIELDPRGRIPVNTRFQTKIPNIYAIGDVVAGPMLAHKAEDEGIICVEGMAGGAVHIDYNCVPSVIYTHPEVAWVGKSEEQLKEEGIEYKVGKFPFAANSRAKTNADTDGMVKILGQKSTDRVLGAHILGPGAGEMVNEAALALEYGASCEDIARVCHAHPTLSEAFREANLAASFGKSINFE
Question: Which “PDHC enzymatic activity of immuno-captured PDHC, the three organs at 24 hours post-treatment, percent increase” value does the source give for B1 here?
Answer: increase in PDHC enzymatic activity (40-65%) was also evident in the three organs at 24 hours post-treatment
